In patent US20250290037:

Target: 488-labeled fibrillized-Aβ (1-42) (Anaspec), P05067
Sequence (P05067 whole entry, looked up, tested part not stated): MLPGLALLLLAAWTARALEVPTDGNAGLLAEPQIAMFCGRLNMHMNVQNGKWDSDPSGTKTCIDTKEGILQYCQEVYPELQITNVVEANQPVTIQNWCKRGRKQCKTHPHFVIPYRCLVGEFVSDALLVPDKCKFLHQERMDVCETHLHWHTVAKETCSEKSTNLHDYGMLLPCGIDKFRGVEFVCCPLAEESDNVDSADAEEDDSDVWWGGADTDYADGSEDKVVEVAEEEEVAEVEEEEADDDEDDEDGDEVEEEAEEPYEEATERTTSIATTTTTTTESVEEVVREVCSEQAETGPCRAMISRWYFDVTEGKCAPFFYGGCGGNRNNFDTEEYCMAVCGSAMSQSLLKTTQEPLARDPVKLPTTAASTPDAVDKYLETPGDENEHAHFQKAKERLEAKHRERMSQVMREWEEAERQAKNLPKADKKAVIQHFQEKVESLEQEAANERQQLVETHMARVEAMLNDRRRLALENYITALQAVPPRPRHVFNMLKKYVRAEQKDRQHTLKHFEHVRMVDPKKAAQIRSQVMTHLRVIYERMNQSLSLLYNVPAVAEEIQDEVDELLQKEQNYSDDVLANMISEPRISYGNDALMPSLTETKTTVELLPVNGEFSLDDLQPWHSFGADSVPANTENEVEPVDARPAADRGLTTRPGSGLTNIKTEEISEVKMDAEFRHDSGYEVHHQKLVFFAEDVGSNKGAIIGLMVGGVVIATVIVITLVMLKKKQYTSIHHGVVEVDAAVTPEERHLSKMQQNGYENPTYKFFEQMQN

| Protein | Aβ phagocytosis over time (slope of internalized fluorescent Aβ signal) |
| --- | --- |
| membrane-bound Neprilysin (full-length Neprilysin; includes transmembrane and cytoplasmic domains) (protein) GKSESQMDITDINTPKPKKKQRWTPLEISLSVLVLLLTIIAVTMIALYATYDDGICKSSDCIKSAARLIQNMDATTEPCTDFFKYACGGWLKRNVIPETSSRYGNFDILRDELEVVLKDVLQEPKTEDIVAVQKAKALYRSCINESAIDSRGGEPLLKLLPDIYGWPVATENWEQKYGASWTAEKAIAQLNSKYGKKVLINLFVGTDDKNSVNHVIHIDQPRLGLPSRDYYECTGIYKEACTAYVDFMISVARLIRQEERLPIDENQLALEMNKVMELEKEIANATAKPEDRNDPMLLYNKMTLAQIQNNFSLEINGKPFSWLNFTNEIMSTVNISITNEEDVVVYAPEYLTKLKPILTKYSARDLQNLMSWRFIMDLVSSLSRTYKESRNAFRKALYGTTSETATWRRCANYVNGNMENAVGRLYVEAAFAGESKHVVEDLIAQIREVFIQTLDDLTWMDAETKKRAEEKALAIKERIGYPDDIVSNDNKLNNEYLELNYKEDEYFENIIQNLKFSQSKQLKKLREKVDKDEWISGAAVVNAFYSSGRNQIVFPAGILQPPFFSAQQSNSLNYGGIGMVIGHEITHGFDDNGRNFNKDGDLVDWWTQQSASNFKEQSQCMVYQYGNFSWDLAGGQHLNGINTLGENIADNGGLGQAYRAYQNYIKKNGEEKLLPGLDLNHKQLFFLNFAQVWCGTYRPEYAVNSIKTDVHSPGNFRIIGTLQNSAEFSEAFHCRKNSYMNPEKKCRVW | Decreasing slope over time, as observed in sNEP and NEP data, indicates increasing degradation of Aβ following internalization |
| secreted Neprilysin (lacks transmembrane and cytoplasmic domains; secretion signal at N-terminus) (protein) YDDGICKSSDCIKSAARLIQNMDATTEPCTDFFKYACGGWLKRNVIPETSSRYGNFDILRDELEVVLKDVLQEPKTEDIVAVQKAKALYRSCINESAIDSRGGEPLLKLLPDIYGWPVATENWEQKYGASWTAEKAIAQLNSKYGKKVLINLFVGTDDKNSVNHVIHIDQPRLGLPSRDYYECTGIYKEACTAYVDFMISVARLIRQEERLPIDENQLALEMNKVMELEKEIANATAKPEDRNDPMLLYNKMTLAQIQNNFSLEINGKPFSWLNFTNEIMSTVNISITNEEDVVVYAPEYLTKLKPILTKYSARDLQNLMSWRFIMDLVSSLSRTYKESRNAFRKALYGTTSETATWRRCANYVNGNMENAVGRLYVEAAFAGESKHVVEDLIAQIREVFIQTLDDLTWMDAETKKRAEEKALAIKERIGYPDDIVSNDNKLNNEYLELNYKEDEYFENIIQNLKFSQSKQLKKLREKVDKDEWISGAAVVNAFYSSGRNQIVFPAGILQPPFFSAQQSNSLNYGGIGMVIGHEITHGFDDNGRNFNKDGDLVDWWTQQSASNFKEQSQCMVYQYGNFSWDLAGGQHLNGINTLGENIADNGGLGQAYRAYQNYIKKNGEEKLLPGLDLNHKQLFFLNFAQVWCGTYRPEYAVNSIKTDVHSPGNFRIIGTLQNSAEFSEAFHCRKNSYMNPEKKCRVW | Decreasing slope over time, as observed in sNEP and NEP data, indicates increasing degradation of Aβ following internalization |
